Test results: patent US20100183649A1 (ACADEMIA SINICA, published 2010)

B1: FMDV capsid protein VP3 (other)
chain: GIFPVACSDGYGGLVTTDPKTADPVYGKVFNPPRNLLPGRFTNLLDVAEACPTFLHFDGDVPYVTTKTDSDRVLAQFDLSLAAKHMSNTFLAGLAQYYTQYSGTINLHFMFTGPTDAKARYMVAYAPPGMEPPKTPEAAAHCIHAEWDTGLNSKFTFSIPYLSAADYAYTASDVAETTNVQGWVCLFQITHGKADGDALVVLASAGKDFDLRLPVDARTQ
B2: FMDV capsid protein VP1 (other)
chain: TTSAGESADPVTATVENYGGETQVQRRQHTDIAFILDRFVKVKPKEQVNVLDLMQIPAHTLVGALLRTATYYFSDLELAVKHEGDLTWVPNGAPETALDNTTNPTAYHKEPLTRLALPYTAPHRVLATVYNGSSKYGDTSTNNVRGDLQVLAQKAERTLPTSFNFGAIKATRVTELLYRMKRAETYCPRPLLAIQPSDARHKQRIVAPAKQLL

Columns and labels:
[1] = molecular target: FMDV capsid protein VP0 (foot-and-mouth disease virus, UniProt Q6PMV1 218-504); experiment: size exclusion HPLC of the U1P1 protease-treated product
[2] = molecular target: B1; experiment: as above

Row | Binder | binding result [1] | binding result [2]
1 | B1 | binds | 
2 | B2 | binds | binds
